The values below come from US10874712B2, “Methods, compounds and compositions for modulating blood brain barrier integrity and re-myelination” (University Health Network, priority 2015, dated 2020).

Entries after “also recorded” stand apart in the source; their conditions may differ.

Test [1] concerns mouse cerebellar organotypic cultures. In words: Remyelination in lysolecithin-demyelinated cerebellar organotypic cultures (MBP staining). Conditions: sRGMc 500 ng/ml for 14 days after lysolecithin. It counts as cell-based. Here is the method:
To assess the ability of sRGMc to function as a remyelinating agent, its function in in vitro cerebellar explant cultures was investigated. Briefly, cultures were demyelinated using lysolecithin, a detergent, and then cultured in the presence of sRGMc for 14 days.
Myelination-demyelination-remyelination studies were performed in mouse cerebellar organotypic cultures. The cerebella of postnatal 6 day old pups were dissected and sectioned at 400 μm thickness using vibratome. Cerebellar sections were then plated on insert plates (Corning, Wilkes Barre, Pa.) and allowed to attach. Media was replaced every 2-3 days and cultures were maintained for 7 days. To induce demyelination, 0.5 mg/ml lysolecithin (1′-monoacyl-1-3-glycerylphosphorylcholine; Sigma) was added to the culture medium for 18 hr, after which it was removed and replaced with fresh medium containing sRGMc (500 ng/ml) or control protein and the cultures maintained for 14 more days. Media was replaced every 2-3 days. Demyelination-remyelination was assessed by staining explants with myelin basic protein antibody MBP (Cell Signaling).

A further test relates to rats subjected to MCAO. In words: Middle Cerebral Artery Occlusion (MCAO), Evans Blue BBB integrity. It counts as in vivo, rat. Conditions: daily tail vein injection of 70 μg, seven days following MCAO. As for the experimental part:
The possibility that RGMc may also restore BBB integrity following stroke was also tested. Middle Cerebral Artery Occlusion (MCAO) was performed in rats, which were treated with a daily tail vein injection of 70 μg of RGMc or PBS (control). Seven days following MCAO, animals received injection of Evans blue to monitor BBB integrity (FIG. 24). To measure BBB integrity, the amount of Evans Blue Dye/g of brain tissue was measured. […] This effect was also quantitated: brains were homogenized and the amount of Evans Blue quantified per gram of wet brain (FIG. 24, B).

The test system of test [2] is EAE-induced mice. The test can be described thus: In vivo BBB permeability, fibrinogen extravasation in spinal cord. The arrangement: species or system mouse. The note with it: EAE day 18; treated every 3 days; vs vehicle. As for the experimental part:
To establish the role of RGMc on BBB permeability, 6-8 week old C57Bl/6 female mice induced with EAE and treated with sRGMc or vehicle (n=6 animals per group) were anesthetized 18 days post induction and trans-cardially perfused with 20 mL PBS followed by 20 mL 4% paraformaldehyde in PBS (PFA) (Electron Microscopy Sciences). Spinal cords were cryo-sectioned at 10 μm thickness and stored at −80° C. The sections were stained for Fibrinogen (Innovative Research); CD31 (Invitrogen); and DAPI (Sigma-Aldrich). All images were obtained using a BX61 confocal microscope (Olympus). CellSens software was used for quantification of cell area and pixel intensity. The area (number of pixels) and fluorescent intensity (mean pixel intensity) of the extravasation markers were measured using CellSens software (Olympus). The relative extent of fluorescent extravasation and BBB disruption was then calculated by multiplying the area with the fluorescent intensity.

The test system of test [3] is EAE-induced mice. The test can be described thus: Experimental Autoimmune Encephalomyelitis (EAE) mouse model, body condition score. It counts as in vivo. The arrangement: clinical severity (body condition score): dose or concentration left out as unconfirmed.
Test [4] has as its system blood brain barrier of mice. In words: BBB permeability, Texas red dye leakage by widefield imaging. It counts as in vivo, mouse. Conditions: mice injected with RGMa plus the agent. As for the experimental part: Mice were treated with RGMa (70 ug), RGMa (70 ug)+RGMc (70 ug), or Vehicle (1% BSA) 18 h prior to widefield imaging (100-300 ms exposure) prior to and following intravenous injection of Texas Red dye (0.5 mg) over time. […] (B) Quantification of the leakage of Texas Red dye (measured as the number of leakage sites/mm^2).
BBB integrity was assessed in mice treated with PBS (Vehicle), RGMa, RGMc, RGMa+ immunoglobulin domain of Neogenin (4Ig). Widefield imaging was then carried out under a Olympus microscope (BX6 1WI) prior to and following the injection of Texas red dye (100 uL, I.V., 5 mg/ml) using 100-300 ms exposure. Recording was performed from 0 min to 35 min following injection. Texas dye leakage was also assessed in RGMc knockout (KO) and wild type (WT) mice. The leakage of Texas-red dye was quantified by a blind experimenter measuring the number of leakage sites/mm^2. (A) Representative images of Texas red dye: PBS (Vehicle), RGMa, RGMa+RGMc and RGMa+4Ig (immunoglobulin domain of Neogenin). Quantification of the leakage of Texas Red dye in animals treated with (B) PBS (Vehicle), RGMa or RGMa+RGMc or in RGMc KO and WT mice or (C) PBS (Vehicle), RGMa, RGMa+RGMc or RGMa+4Ig.
Mice injected with BSA, RGMc, RGMa, or RGMa+RGMc. […] Leakage of Texas red dye was quantified by a blind experimenter measuring the number of leakage sites/mm^2. […]

The test system of test [5] is mice with passively induced EAE. In words: Adoptive transfer EAE, infiltration of CellVue-labelled cells into spinal cord. It counts as in vivo, mouse. The note with it: treated every 3 days; sacrificed day 8 after transfer; vs PBS. Here is the method: Briefly, donor animals were immunized with 100 ug MOG(35-55) and sacrificed at day 10. Splenocytes were harvested and re-stimulated for 3 days with 33 ug/mL MOG(35-55) in the presence of 20 ng/ml rmIL-23. Cells were then labelled with CellVue Maroon and injected into recipient animals treated with RGMc or vehicle as well as PTx on day 0 and day 2. Recipient animals were treated every 3 days and sacrificed on day 8 and spinal cords sectioned for immunofluorescence staining.
Having shown that RGMc levels regulate the extravasation of molecules through the BBB, its role on cellular infiltration was evaluated. To do so, adaptive transfer using spleenocyte cells from MOG treated animals was performed. After collection of splenocyte cells were re-stimulated for 3 days with MOG, stained with Cellvue Maroon and injected into recipient mice treated with pertussis toxin. Following injection, animals received either PBS (Control) or RGMc every 3 days. Eight days after transfer animals were sacrificed and cellular infiltration was monitored using Cellvue-reporter. […] Thus, treatment with RGMc prevented T cell infiltration towards the CNS.

[6] abbreviates: intra-peritoneal injections, vs vehicle.

B1: sRGMc: truncated form of RGMc with the GPI anchor sequence removed, released as a soluble protein (SEQ ID NOs: 1 and 3) (protein, listed as Homo sapiens)
chain: CKILRCNAEYVSSTLSLRGGGSSGALRGGGGGGRGGGVGSGGLCRALRSYALCTRRTARTCRGDLAFHSAVHGIEDLMIQHNCSRQGPTAPPPPRGPALPGAGSGLPAPDPCDYEGRFSRLHGRPPGFLHCASFGDPHVRSFHHHFHTCRVQGAWPLLDNDFLFVQATSSPMALGANATATRKLTIIFKNMQECIDQKVYQAEVDNLPVAFEDGSINGGDRPGGSSLSIQTANPGNHVEIQAAYIGTTIIIRQTAGQLSFSIKVAEDVAMAFSAEQDLQLCVGGCPPSQRLSRSERNRRGAITIDTARRLCKEGLPVEDAYFHSCVFDVLISGDPNFTVAAQAALEDARAFLPDLEKLH
On to B1, for which the “remyelination (myelin basic protein staining)” value in test [1] is “promote remyelination”. In addition, the “reduction in Evans Blue levels in the brain compared to PBS-treated animals” value in the test on rats subjected to MCAO is recorded as 3 fold. For the same molecule, the “Evans Blue extravasation into the CNS, visual inspection” value with rats subjected to MCAO (vs control) was “strongly reduced”. Also, the fibrinogen extravasation result in the test with EAE-induced mice [2] is “significant decrease”. Further, in the test on EAE-induced mice [3] (setting [6]), the disease severity entry is “significantly abrogated disease severity”, the “incidence of EAE onset” value is on record as “decreased the incidence of EAE onset” and the onset of disease entry is recorded as “delayed the onset of disease”. Besides, in the test with EAE-induced mice [3] (intravenous sRGMc at days 3, 6 and 9), the “day by which treated animals developed clinical symptoms” value was at most 14 day post-induction. In addition, the “clinical severity of the disease (body condition score)” value in the test on EAE-induced mice [3] (intravenous sRGMc at days 3, 6 and 9 post-induction, vs vehicle, scored 18 days) is given as “significant decrease in clinical severity”. In addition, in the test on EAE-induced mice [3] (sRGMc every three days, vs PBS, FIG. 6B), the “clinical severity (body condition score)” value is on record as “markedly reduced”. For the same molecule, in test [4], the “RGMa-induced disruption of BBB integrity (Texas Red dye leakage)” value is on record as “suppressed; also recorded: ameliorated”. Further, the “accumulation of Cellvue+ cells within the spinal cord” value in test [5] was “did not show accumulation”.
